Data on four molecules can be found in patent US20210047431A1 (DIACCURATE, published 2021).

The target in assay [1] is T1, recombinant human sPLA2-GIB (mature secreted form of group IB pancreatic phospholipase A2) (human, UniProt P04054 23-148). Kind of assay: cell-based or functional assay.
Assay [2] deals with T1, recombinant human sPLA2-GIB (mature …). Kind of assay: indirect ELISA, coated antigen. Here is the method: (§1) Microplate wells were typically coated with 100 ng of recombinant human sPLA2-GIB or pro-sPLA2-GIB in PBS pH 7.5, overnight at 4° C. Sample wells were washed three times with PBS containing 0.05% Tween 20. After final washing, sample wells were treated with blocking solution containing 1% bovine serum albumin (BSA) in PBS buffer for 60 min at room temperature. Following washing with PBS containing 0.05% Tween 20, increasing amounts (10 ng/mL up to 3 μg/mL) of mAb directed against human pro-sPLA2-GIB or sPLA2-GIB were added to antigen-coated wells. and incubated for 120 min at room temperature. Following washing with PBS containing 0.05% Tween 20, the binding of mAb was detected with an HRP-conjugated goat anti-mouse IgG or IgA polyclonal antibody reagent and developed using colorimetric substrate. The dependency of the signals on the […] was analyzed with a 4-parameter fit analysis using Prism™ software (Graph Pad) and reported as EC50.

Assay [3] deals with T2, recombinant human pro-sPLA2-GIB (pro form of group IB pancreatic phospholipase A2) (human, UniProt P04054 16-148).
T2 construct: also called pro-sPLA2-IB; proPLA2-GIB
T2 sequence (P04054 16-148): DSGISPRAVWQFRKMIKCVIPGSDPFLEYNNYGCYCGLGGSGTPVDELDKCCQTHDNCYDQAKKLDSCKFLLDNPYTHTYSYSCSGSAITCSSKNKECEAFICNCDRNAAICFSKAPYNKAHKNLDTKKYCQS
Kind of assay: indirect ELISA, coated antigen. The procedure: as §1
(In an ELISA, binding on a coated surface is turned into a signal by an enzyme label.)

Assay [4] deals with T1, recombinant human sPLA2-GIB (mature …). Kind of assay: competition ELISA on coated sPLA2-IB; competitor biotinylated 14G9. Here is the method:
(§2) Epitope mapping of the #14G9, #1C11, #8G11 and #7A10 mAbs was evaluated by competition ELISA. Biotinylated mAbs #14G9, #1C11, #8G11 or #7A10 were added to sPLA2-GIB or pro-sPLA2-GIB coated plates in the presence of an excess of un-biotinylated mAb. Bound mAbs were then detected with Streptavidin-HRP conjugate. Results were expressed as percentage of signal, after subtraction of the autologous competition, with 0% representing maximum competition and 100% no competition (Table 4).

For assay [5] the target is unchanged. Kind of assay: competition ELISA on coated sPLA2-IB; competitor biotinylated 7A10. The procedure:
as §2

The target of assay [6] is T2, recombinant human pro-sPLA2-GIB (pro …). Kind of assay: competition ELISA on coated pro-sPLA2-IB; competitor biotinylated 7A10. The procedure:
as §2

For assay [7] the target is unchanged. Kind of assay: competition ELISA on coated pro-sPLA2-IB; competitor biotinylated 8G11. Here is the method: as §2
Assay [8] concerns the target T1, recombinant human sPLA2-GIB (mature …). Kind of assay: SPR (BIAcore 2000), mAb captured on anti-mouse IgG, antigen in solution. Here is the method:
(§3) The affinity constant (KD) of the pro-sPLA2-GIB and sPLA2-GIB binding to the selected antibodies described above were determined by surface kinetics on a real-time biosensor surface plasmon resonance assay (BIAcore™). More specifically, the affinity of the antibodies for human pro-sPLA2-GIB and sPLA2-GIB was measured using a BIAcore® 2000. The antibody was captured on an anti-mouse IgG surface and exposed to various concentrations of recombinant pro-sPLA2-GIB and sPLA2-GIB protein. Kinetic analysis using BlAevaluation™ software was performed to obtain the association and dissociation rate constants.
as §3, with “constants (Table 3).” for “constants.”
In general terms: SPR reads the build-up and loss of mass on a sensor chip optically.

Assay [9] has as its target T2, recombinant human pro-sPLA2-GIB (pro …). The description is as above. The procedure: as §3
as §3, with “constants (Table 3).” for “constants.”

The target of assay [10] is T1, recombinant human sPLA2-GIB (mature …). Kind of assay: competitive ELISA: mAb premixed with serial dilutions of soluble antigen, free mAb read on antigen-coated plate. The procedure: (§4) Binding affinities of the antibodies to pro-sPLA2-GIB and sPLA2-GIB were measured by plate-based competition immunoassay. For the competition ELISA, briefly, constant amounts of antibody at different levels were premixed with serial dilutions of antigen protein, human sPLA2-GIB or pro-sPLA2-GIB, ranging from 0 to 10 μg/ml, and incubated for two hours at room temperature to reach pseudo-binding equilibrium between the antibody and antigen. These solutions were then transferred to 96-well sPLA2-GIB or pro-sPLA2-GIB pre-coated plates to allow the free-antibody in the mixtures to bind to plate-coated sPLA2-GIB or pro-sPLA2-GIB. The plates were typically coated with 30 to 100 ng of human sPLA2-GIB or pro-sPLA2-GIB protein in PBS solution overnight at 4° C. followed by BSA nonspecific blocking. After washing off excess antibody in solution, plate-bound antibodies were detected with an HRP-conjugated goat anti-mouse IgG or IgA polyclonal antibody reagent and developed using colorimetric substrate. The dependency of the signals on the concentrations of antigen in solution was analyzed with a 4-parameter fit analysis using Prism™ software (Graph Pad) and reported as IC50.
(§5) The respective binding affinities of the antibodies to human pro-sPLA2-GIB and human sPLA2-GIB were measured by plate-based competition immunoassay. Briefly, constant amounts of antibody at different levels were premixed with serial dilutions of antigen proteins to reach pseudo-binding equilibrium between the antibody and antigen. These solutions were then transferred to antigen pre-coated plates to allow the free-antibody in the mixtures to bind to plate-coated sPLA2-GIB or pro-sPLA2-GIB. Plate-bound antibodies were detected with an HRP-conjugated polyclonal antibody. Data were fitted with a 4PL logistic non-linear regression model and the relative IC50 values were estimated from the model (Table 2).

The target of assay [11] is T2, recombinant human pro-sPLA2-GIB (pro …). Described as above. Here is the method:
as §4, §5

Assay [12] concerns the target T1, recombinant human sPLA2-GIB (mature …). Kind of assay: competition ELISA on coated sPLA2-IB; competitor biotinylated 1C11. The procedure: as §2
Assay [13] concerns the target T2, recombinant human pro-sPLA2-GIB (pro …). Kind of assay: competition ELISA on coated pro-sPLA2-IB; competitor biotinylated 1C11. The procedure:
as §2

Positions count from the first letter of the chain named.

T1 sequence (P04054 23-148): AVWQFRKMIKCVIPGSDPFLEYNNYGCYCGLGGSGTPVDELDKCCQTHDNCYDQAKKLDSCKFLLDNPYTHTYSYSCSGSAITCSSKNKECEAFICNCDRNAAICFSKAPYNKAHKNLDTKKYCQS

B1: #1C11 (antibody, IgG1, V domains shown)
VH: EVKLQESGPELVKPGASVKISCKVSGYAFSSFWMNWVKQRPGKGLEWIGRIYPGDGDINYNGKFKGKATLTADKSSSTAYMQLSSLTSEDSAVYFCVRGWAWFPYWGQGTLVTVSA
VL: EIVLTQSPAITSASLGQRVTISCSATSSVSYVHWYQQKSGTSPKPWIYEISRLASGVPARFSGSGSGTSYSLTISTMEAEDAAIYYCQSWNFPLLSFGAGTKLELKR
notes: also called monoclonal antibody 1C11; #1C11 mAb
Broadly, the EC50 is the concentration at which the effect is half-maximal. One may read the Kd as the constant that tells how readily two partners part at equilibrium. In general, koff refers to the rate constant with which the complex falls apart. The kon is the rate constant with which the complex forms. By IC50 is commonly meant the concentration at which inhibition is half-maximal. B1: the “Enzymatic Activity Inhibition (% of Control)” value in assay [1] was found to be 110%. In addition, the EC50 in assay [2] was found to be 3 nM; in [3], 4 nM. Further, the percentage of signal is 1440% in assay [4], 1150% in [5], 314% in assay [6] and 496% in assay [7]. Further, the Kd was found to be 0.0644 nM in [8] and 0.151 nM in assay [9]. The dissociation rate constant (koff) was 0.000309 s⁻¹ in assay [8] and 0.000405 s⁻¹ in [9]. Besides, the figures for the kon in assay [8] and in assay [9] were 4.79e+06 M⁻¹ s⁻¹ and 2.7e+06 M⁻¹ s⁻¹, respectively. In addition, the t1/2 is 53.9 min in assay [8] and 41.2 min in assay [9]. The IC50 was determined as 3.8 nM in assay [10] and 2.4 nM in [11].

B2: #7A10 (antibody, IgG1, V domains shown)
VH: QVQLKESGPGLVAPSQSLSITCTVSGFSLTSYGVSWVRQPPGKGLEWLGVIWGDGSTNYHSALISRLSISKDNSKSQVFLKLNSLQTDDTATYYCAKEGGLRRGVYFDYWGQGTTLTVSS
VL: DIQMNQSPSSLSASLGDTITITCRASQGISIWLDWYQQKPGNIPKLLIYKASNLHTGVPPRFSGSGSGTDFTLTISSLQPEDIATYYCLQSQSYPLTFGAGTKLELKR
notes: also called monoclonal antibody 7A10; #7A10 mAb
Regarding B2, the “Enzymatic Activity Inhibition (% of Control)” value in [1] was 51%. Also, the 50% effective concentration (EC50) in assay [2] is 77 nM; in assay [3] it was 13 nM. Moreover, the percentage of signal in assay [4] was 58%; in [12], 19%; in [13], 18%; in assay [7], 93%. In addition, the Kd in assay [8] came out at 3.83 nM; in [9], 3.79 nM. The koff in [8] was found to be 0.000444 s⁻¹; in assay [9] it was 0.000407 s⁻¹. Besides, the kon in [8] is 118000 M⁻¹ s⁻¹; in assay [9], 110000 M⁻¹ s⁻¹. The t1/2 in assay [8] turned out to be 37.5 min; in assay [9], 41 min. Further, the results for the half-maximal inhibitory concentration (IC50) in assay [10] and in assay [11] were 5.3 nM and 4.3 nM, respectively.

B3: #22C6 (antibody, IgG2a, V domains shown)
VH: EVQLQESGPGLVKPSQTVSLNCTVTGHSITDDNYYWSWIRLVSGSKLEWIGYITSAGNTDNNPSLKSRISITRDISKNQFFLHLSSVTAEDTATYYCARDSTDGDFYFEKWGQGTTLTVSS
VL: EIVLTQSPTTMAASPGEKITITCSVSSSISPNFLHWYQQKPGFSPKLLIFRTSNLASGVPTRFSGSGSGTSYSLTIGTMEAEDVATYYCHQGNSLPLTFGAGTKLELKR
As for B3, the “Enzymatic Activity Inhibition (% of Control)” value in assay [1] amounted to 3%. Further, the EC50 in assay [2] is 22 nM; in [3] it was 117 nM. Besides, the percentage of signal in assay [4] turned out to be 2%; in assay [12] it was 56%; in assay [5], 53%; in assay [13], 18%; in [6] it was 141%; in assay [7], 39%.

B4: #24B2 (antibody, IgG2a, V domains shown)
VH: B3 VH with E1D, L4V, A56S, N58S, N61I, S85N
VL: DIVLTQSPASLAVSLGQRATISCRASESVDNYGISFMHWYQQKPGQPPKLLIYRASNLESGIPARFSGSGSRTDFTLTINPVETDDVATYYCQQSSRDLFTFGGGTKLEIKR
B4: the “Enzymatic Activity Inhibition (% of Control)” value in [1] was found to be 5%. The EC50 came to 15 nM in [2] and 81 nM in assay [3]. In addition, the percentage of signal amounted to 17% in [4]; 61% in [12]; 65% in [5]; 23% in assay [13]; 135% in assay [6]; 64% in [7].
